Data published in PMC8528075.

Biological target: SARS-CoV-2 S2P spike (prefusion-stabilized trimer) (SARS-CoV-2 Wuhan-Hu-1)
Assay: cryo-EM structure

## 2–36 Fab
  stoichiometry N (Fabs per spike): 3
